Assay results from patent US20230357340A1.

Key:
[1] = target: recombinant mouse IL-18 protein (mouse) (UniProt P70380)
[2] = target: recombinant human IL-18 (human) (UniProt Q14116); test: cell-based or functional assay
Sequence of recombinant human IL-18 (human) (Q14116 37-193 limits assumed): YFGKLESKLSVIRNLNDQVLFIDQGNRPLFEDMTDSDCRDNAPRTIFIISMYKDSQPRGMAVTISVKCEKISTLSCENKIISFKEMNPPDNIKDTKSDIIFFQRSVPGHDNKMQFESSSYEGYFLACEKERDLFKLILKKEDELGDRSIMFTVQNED

Sequence of recombinant mouse IL-18 protein (mouse) (P70380 36-192 limits assumed): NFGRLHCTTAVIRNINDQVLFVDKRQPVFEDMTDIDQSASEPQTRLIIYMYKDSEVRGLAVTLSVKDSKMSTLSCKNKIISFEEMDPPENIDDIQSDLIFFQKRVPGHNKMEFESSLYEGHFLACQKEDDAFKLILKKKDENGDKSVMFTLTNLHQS

Row | Substance | IC50 (read off the curve); mouse IL-18-induced IFN-γ secretion by mouse CD4+ T cells [1] [nM] | IC50 of inhibition of IL-18-induced IFN-γ production in KG-1 cells [2] [nM]
1 | hIL18BP-His(SinoBio.) (from UniProt O95998) | 1 | –
2 | recombinant human interleukin-18-binding protein with C-terminal His-tag (hIL18BP-his8) (from UniProt O95998 31-194) | 0.3 | 0.024
